Measurements from CN115894698A (SHAANXI MYBIOTECH CO LTD, dated 2023).
Blank lines part the entries; values can stand above or below the binder they belong to.

Tests used:
[1] = target: T1, CHI3L1-6his(pcDNA3.1，在293T细胞中过表达的完整人CHI3L1) (human, UniProt P36222 22-383); experiment: CBA, immunofluorescence on acetone-fixed 293T cells overexpressing CHI3L1-6his
T1 construct: whole, on cells; CBA / immunofluorescence target: transfected, acetone-fixed 293T cells; also called 完整CHI3L1序列; 过表达CHI3L1蛋白的细胞; not shown: 6his tag

[2] = target: T2, Q CHI3L1-329-346-6his(缺失329-346片段的CHI3L1构建体) (human, UniProt P36222 22-383); experiment: immunofluorescence on transfected, acetone-fixed 293T cells
T2 construct: Deletion construct, overexpressed in 293T cells from pcDNA3.1, acetone-fixed; not shown: 6his tag

[3] = target: T1, CHI3L1-6his(pcDNA3.1，在293T细胞中过表达的完整人CHI3 …; experiment: as above

- binding result [1]: binds
B1: 人CHI3L1单克隆抗体1D7(杂交瘤细胞1D7-C5-D5培养上清) (antibody, V domains shown)
VH: EVQLLETGGGLVQPGGSRGLSCEGSGFTFSGFWMSWVRQTPGKTLEWIGDINSDGSTINYAPSIKDRFTIFRDNDKSTLYLQMSNVRSEDTATYFCMRYKGAHWGQGTLVTVSA
VL: not shown
notes: Tested as culture supernatant; also called 1D7杂交瘤细胞上清; 阳性杂交瘤细胞上清

- binding result [2]: no binding
- binding result [3]: binds
B2: 重组单克隆抗体1D7(1D7m2a + 1D7mk，293T细胞上清) (antibody, V domains shown)
VH: B1 VH
VL: not shown
notes: VH cloned into pFUSE-CHIg-m2a (mouse IgG2a constant region of the vector), VL into pFUSE2ss-CLIg-mk (mouse kappa); Tested as 293T culture supernatant; also called 重组1D7单克隆抗体; 重组单克隆细胞上清
